Measurements taken from patent US20230192831A1.
Positions count from the first letter of the chain named.

B1: H4H6248P (antibody, human IgG4, V domains shown)
VH: QVQLVESGGGVVQPGRSLRLSCAASGFTFSNYGMHWVRQVPGKGLEWVAVIWYDGSNKYYADSVKGRFTISRDNSKNTLYLQMNSVRAEDTAVYYCARDDYGDSPGFDYWGQGTLVTVSS
VL: EIVMTQSPATLSVSPGERATLSCRASQSVSSSLAWYQQKPGQAPRLLIYDASTRATGIPARFSGSGSGTEFTLTISGLQSEDFAVYYCQQYNNWPPWTFGQGTKVEIK
B2: H4H6250P (antibody, human IgG4, V domains shown)
VH: QVQLVESGGGVVQPGRSLRLSCAASGFTFSNYGMHWVRQAPGKGLEWVAVIWYDGSNKYYADSVKGRFTISRDNSRKTLYLQMNSLRAEDTAIYYCTRDDYGDYDYPFDYWGQGTLVTVSS
VL: DIQMTQSPSSLSASVGDRVTITCRASQGIRNDLGWYQQKPGKAPKRLIYAASSLQSGVPSRFSGTGSGTEFTLTISSLQPEDFATYYCLQHNSYPPFTFGPGTKVDIK
B3: H4H6251P (antibody, human IgG4, V domains shown)
VH: B1 VH with R16K, N31R, V40A, V86L, E89D, V93M, Y109F
VL: B1 VL with S32N, S65T, G77S, V85L, N92D, N93D
B4: H4H6252P (antibody, human IgG4, V domains shown)
VH: B2 VH with K43R, Y53F, R76K, K77N, A88S, I93V
VL: B2 VL with T65S, H91Y, S93T
B5: H4H6260P (antibody, human IgG4, V domains shown)
VH: QVQLVESGGGVVQPGRSLRLSCAASGFTFSTYGMHWVRQAPGKGLEWVAIIWYDGSNYYYADSVKGRFTISRDNSKNTLYLQMNSLRAEDTAVYYCAREDRNDVFDIWGQGTMVTVSS
VL: EIVLTQSPATLSLSPGERATLSCRASQSVSSFLAWYQQKPGQAPRLLIYDSSNRATGIPARFSGSGSGTDFTLTISSLEPEDFAVYYCQQLSNWPPITFGQGTRLEIK
B6: H4H6270P (antibody, human IgG4, V domains shown)
VH: QVQLVESGGDVVQPGRSLRLSCAASGFTFSSYGMHWVRQAPGKGLEWVAIIWNDGSNKYYTDSVKGRFTISRDNSKNTLYLQMNGLRAEDTAIYYCARDQDQFDYWGQGTLVTVSS
VL: B1 VL with V29I, S31T, S32N, Q37R, E70D, G77S, N92S, W97Y, V105L

Key:
[1] = target: recombinant human GREM1 (hGREM1-His; C-terminal 10His tagged, R&D, #5190-GR) (human) (UniProt O60565); assay: BLI Octet, captured mAb, 100 nM GREM1 + 5 uM heparin
[2] = target: recombinant human GREM1 (hGREM1-His; C-terminal 10His tagged, R&D, #5190-GR) (human) (UniProt O60565); assay: BLI Octet, captured mAb, 100 nM GREM1 without vs with 5 uM heparin
[3] = target: recombinant human GREM1 (hGREM1-His; C-terminal 10His tagged, R&D, #5190-GR) (human) (UniProt O60565); assay: BLI Octet, captured mAb, 100 nM GREM1
[4] = target: recombinant human GREM1 (hGREM1-His; C-terminal 10His tagged, R&D, #5190-GR) (human) (UniProt O60565); assay: cell-based or functional assay

Chain of recombinant human GREM1 (hGREM1-His; C-terminal 10His tagged, R&D, #5190-GR) (human) (O60565 other isoform, or with tags, fused parts or gaps limits assumed, form in doubt): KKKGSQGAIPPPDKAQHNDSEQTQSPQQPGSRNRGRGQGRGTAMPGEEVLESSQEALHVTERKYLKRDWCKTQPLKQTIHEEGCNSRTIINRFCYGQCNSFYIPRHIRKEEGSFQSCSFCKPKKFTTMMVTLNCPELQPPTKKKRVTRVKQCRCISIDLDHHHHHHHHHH

Row | Binder | Binding Signal with 30 sec Association (nm) [1] | Binding Signal with 300 sec Association (nm) [1] | Reduction in Signal from Heparin at 30 sec [2] | Reduction in Signal from Heparin at 300 sec [2] | Binding Signal with 30 sec Association (nm) [3] | Binding Signal with 300 sec Association (nm) [3] | IC50 [M], W-20-17/BRE-luc luciferase bioassay, 100 pM hBMP4 and 10 nM hGREM1-His [4] | hGREM1-His Inhibition IC50, M; W-20-17 cell differentiation assay (alkaline phosphatase) [4]
1 | B1 | 0.04 nm | 0.37 nm | 0.17 nm | 0.05 nm | 0.21 nm | 0.42 nm | 5.3e-10 M | 5.6 nM
2 | B2 | 0.06 nm | 0.32 nm | 0.14 nm | 0.05 nm | 0.2 nm | 0.37 nm | 4.4e-10 M | 12 nM
3 | B3 | 0.03 nm | 0.36 nm | 0.24 nm | 0.09 nm | 0.27 nm | 0.45 nm | 6.3e-10 M | 11 nM
4 | B4 | 0.04 nm | 0.35 nm | 0.19 nm | 0.09 nm | 0.23 nm | 0.44 nm | 8.2e-10 M | 6.1 nM
5 | B5 | 0.07 nm | 0.37 nm | 0.17 nm | 0.05 nm | 0.24 nm | 0.42 nm | 4.6e-10 M | 3.3 nM
6 | B6 | 0.05 nm | 0.33 nm | 0.15 nm | 0.06 nm | 0.2 nm | 0.39 nm | 5.4e-10 M | 3.1 nM
